In PMC11476177:

T1: His-TonEBP sNT (UniProt O94916 1-548)
T1 sequence: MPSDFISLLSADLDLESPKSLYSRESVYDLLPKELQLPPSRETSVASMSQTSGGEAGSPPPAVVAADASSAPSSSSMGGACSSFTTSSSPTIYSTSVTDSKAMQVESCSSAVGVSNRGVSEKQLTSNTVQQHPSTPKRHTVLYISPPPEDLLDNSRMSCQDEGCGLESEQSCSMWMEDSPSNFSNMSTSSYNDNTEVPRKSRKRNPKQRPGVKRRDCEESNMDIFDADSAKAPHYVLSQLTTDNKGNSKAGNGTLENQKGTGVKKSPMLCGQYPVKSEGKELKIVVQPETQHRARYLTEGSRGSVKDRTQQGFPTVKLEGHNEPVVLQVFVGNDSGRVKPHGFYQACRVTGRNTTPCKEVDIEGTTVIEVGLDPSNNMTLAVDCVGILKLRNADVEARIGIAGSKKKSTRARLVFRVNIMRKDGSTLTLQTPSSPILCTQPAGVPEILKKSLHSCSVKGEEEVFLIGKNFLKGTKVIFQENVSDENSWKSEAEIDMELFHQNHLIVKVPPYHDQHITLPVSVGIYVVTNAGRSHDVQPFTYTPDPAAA

B1: Probe p65 (dsDNA)
DNA 1: AATGTAAGTGGGAAATTCCTCTGAATA
DNA 2: TATTCAGAGGAATTTCCCACTTACATT
B2: Probe IRF3/p65 (dsDNA)
DNA 1: ATAGGAAAACTGAAAGGGAGAAGTGAAAGTGGGAAATTCC
DNA 2: GGAATTTCCCACTTTCACTTCTCCCTTTCAGTTTTCCTAT

How the values were obtained:
His-p65 = His-p65 (UniProt Q04206); test: SPR; conditions: SPR: 10 mM HEPES, 150 mM NaCl, 3 mM EDTA, 0.05% P20, pH not stated, room temp, EMSA: 10 mM Tris-HCl pH 7.5, 10 mM NaCl, 40 mM KCl, 1 mM MgCl2, 1 mM EDTA
Chain of His-p65 (Q04206 whole entry): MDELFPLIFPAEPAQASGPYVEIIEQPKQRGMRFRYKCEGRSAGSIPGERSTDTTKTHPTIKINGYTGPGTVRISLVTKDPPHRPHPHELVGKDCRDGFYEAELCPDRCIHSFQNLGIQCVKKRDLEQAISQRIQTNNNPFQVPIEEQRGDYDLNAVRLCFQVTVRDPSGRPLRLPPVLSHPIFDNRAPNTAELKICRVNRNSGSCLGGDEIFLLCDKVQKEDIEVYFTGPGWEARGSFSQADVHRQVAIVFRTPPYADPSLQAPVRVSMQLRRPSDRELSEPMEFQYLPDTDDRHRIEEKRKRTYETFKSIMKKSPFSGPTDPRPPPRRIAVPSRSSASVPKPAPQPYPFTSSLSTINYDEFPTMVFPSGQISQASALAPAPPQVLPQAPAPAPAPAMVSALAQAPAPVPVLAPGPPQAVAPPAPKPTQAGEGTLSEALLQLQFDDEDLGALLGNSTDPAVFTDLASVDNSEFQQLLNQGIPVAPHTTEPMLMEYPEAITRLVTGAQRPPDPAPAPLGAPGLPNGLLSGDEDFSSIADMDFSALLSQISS

His-TonEBP sNT = molecular target: T1, His-TonEBP sNT; test: SPR; SPR: 10 mM HEPES, 150 mM NaCl, 3 mM EDTA, 0.05% P20, pH not stated, room temp; EMSA: 10 mM Tris-HCl pH 7.5, 10 mM NaCl, 40 mM KCl, 1 mM MgCl2, 1 mM EDTA, 1 mM DTT, 50 ug/mL BSA, 100 nM probe, 25 min room temp, 0.8% agarose; conditions: protein: recombinant; tags: N-terminal His; chain copies: 2; label: biotin (SPR), 5' end of strand 1 as printed; text says dsDNA, only one strand given

| Molecule | Kd (His-p65) [nM] | Kd (His-TonEBP sNT) [nM] |
| --- | --- | --- |
| AATGTAAGTGGGAAATTCCTCTGAATA (double strand) [Probe p65] | 35.2 | – |
| ATAGGAAAACTGAAAGGGAGAAGTGAAAGTGGGAAATTCC (double strand) [Probe IRF3/p65] | 11.5 | – |
| B1 | – | 84.7 |
| B2 | – | 31.3 |
